Test results taken from patent US20170020994.

Tests used:
[1] = tested on: RA-TALE_ICP4 (ICP4-TALE-VP16) (synthetic construct); assay: cell_activity; settings: Fluc reporter with ICP4 promoter, 293T
[2] = tested on: RA-TALE_ICP0 (ICP0-TALE-VP16) (synthetic construct); assay: cell_activity; settings: Fluc reporter with ICP0 promoter, 293T

Row | Sequence | activity (fold activation) [1] | activity (fold activation) [2]
1 | GGCAGATGGCGCGGATG (double strand) [ICP4 promoter TALE site] | 60 | 
2 | GGGACGCGCGGCCAT (double strand) [ICP0 promoter TALE site] |  | 20
